The supplement of paper PMC6757056
± gives the standard deviation of the averaged measurements.

B1: library; a variant is named by its letters at N, in order (parent)
chain: GCUGUCACCGAGAAACUGUGAAGUAUAUCUUAAACCUGGGCACUUAAAAGAUAUAUGGAGUUAGUAGUGCAACCUGCUCGGUCUGAUGAGUCCNNNNNNGGACGAAACAGC

Tests used:
cyclic di-GMP [1] = variants of: B1; assay: FACS-Seq fitted mean relative fluorescence mCherry/BFP without ligand (log10 relative fluorescence); HEK293T; ligand: cyclic di-GMP (c-di-GMP-II aptamer); higher = higher reporter protein expression; conditions: ligand present: no
Protocol: (§1)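 Hammerhead (sTRSV) ribozyme switch libraries with a ligand aptamer grafted on stem I and a randomized N4-6 loop II, cloned into the 3' UTR of mCherry and transiently transfected into HEK293T cells; RNA-Seq 72 h post transfection with ligand added 1 h before transfection; RNA read count / plasmid DNA read count normalized to the non-cleaving sTRSVctl (x100), log10; sequences with >100 DNA reads. FACS-Seq: lentiviral library sorted into 6 bins after 48 h ligand, log-normal fit mean of mCherry/BFP scaled to controls. Printed sequences are partial switch sequences.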

cyclic di-GMP [2] = variants of: B1; assay: normalized RNA/DNA level without ligand (relative to sTRSVctl = 100) (log10 (% of sTRSVctl)); HEK293T; ligand: cyclic di-GMP (c-di-GMP-II aptamer); higher = less ribozyme self-cleavage, higher mRNA level; conditions: reporter: mCherry (pCS4076), ligand present: no
Protocol: as §1

cyclic di-GMP [3] = variants of: B1; assay: FACS-Seq fitted mean relative fluorescence mCherry/BFP with ligand (log10 relative fluorescence); HEK293T; ligand: cyclic di-GMP (c-di-GMP-II aptamer); ligand concentration (+) FACS-Seq: 1 mM; higher = higher reporter protein expression; conditions: ligand present: yes
Protocol: as §1

cyclic di-GMP [4] = variants of: B1; assay: normalized RNA/DNA level with ligand (relative to sTRSVctl = 100) (log10 (% of sTRSVctl)); HEK293T; ligand: cyclic di-GMP (c-di-GMP-II aptamer); ligand concentration (+) RNA-Seq: 1 mM; higher = less ribozyme self-cleavage, higher mRNA level; conditions: reporter: mCherry (pCS4076), ligand present: yes
Protocol: as §1

| Variant | FACS-Seq fitted mean (log10) (cyclic di-GMP [1]) | normalized RNA/DNA level without ligand (log10) (cyclic di-GMP [2]) | FACS-Seq fitted mean (log10) (cyclic di-GMP [3]) | normalized RNA/DNA level with ligand (log10) (cyclic di-GMP [4]) |
| --- | --- | --- | --- | --- |
| UACUAU | -0.131 ± 0.0047 | 1.67 ± 0.051 | 0.0664 ± 0.13 | 1.83 ± 0.15 |
| AAAAUG | -0.0352 ± 0.079 | 1.5 ± 0.05 | 0.319 ± 0.046 | 1.7 ± 0.12 |
| AAAAUC | 0.0212 ± 0.1 | 1.62 ± 0.028 | 0.2003 ± 0.0016 | 1.76 ± 0.06 |
| CGCUCU | -0.865 ± 0.06 | 1.54 ± 0.049 | -0.64 ± 0.039 | 1.73 ± 0.1 |
| AGCCAA | -0.274 ± 0.071 | 1.53 ± 0.072 | -0.0148 ± 0.057 | 1.73 ± 0.053 |
| AGCACU | 0.129 ± 0.16 | 1.7 ± 0.023 | 0.4 ± 0.012 | 1.82 ± 0.12 |
| CGCUAU | -1.02 ± 0.037 | 1.41 ± 0.12 | -0.866 ± 0.11 | 1.64 ± 0.094 |
| CGCUAC | -0.231 ± 0.14 | 1.65 ± 0.021 | 0.045 ± 0.046 | 1.81 ± 0.11 |
| CGACGA | -0.45 ± 0.042 | 1.5 ± 0.094 | -0.105 ± 0.043 | 1.71 ± 0.071 |
| ACCAGU | -0.368 ± 0.064 | 1.602 ± 0.0077 | 0.00485 ± 0.036 | 1.8 ± 0.068 |
| UCGGUA | -0.583 ± 0.023 | 1.31 ± 0.18 | -0.2658 ± 0.00058 | 1.52 ± 0.054 |
| CGGCAA | -0.818 ± 0.011 | 1.28 ± 0.077 | -0.675 ± 0.04 | 1.47 ± 0.097 |
| CGGCAU | -0.564 ± 0.044 | 1.49 ± 0.073 | -0.2893 ± 0.0014 | 1.64 ± 0.13 |
| CUCUUG | 0.116 ± 0.092 | 1.73 ± 0.029 | 0.381 ± 0.043 | 1.86 ± 0.096 |
| CGUCAA | -0.556 ± 0.083 | 1.31 ± 0.093 | -0.352 ± 0.01 | 1.49 ± 0.13 |
| UAGUUU | -0.234 ± 0.073 | 1.675 ± 0.0087 | 0.0254 ± 0.084 | 1.85 ± 0.081 |
| GAUUUA | -0.361 ± 0.0081 | 1.65 ± 0.018 | -0.0961 ± 0.03 | 1.81 ± 0.11 |
| CUCUAC | -0.26 ± 0.15 | 1.69 ± 0.038 | -0.0375 ± 0.07 | 1.82 ± 0.11 |
| ACGCUC | -0.914 ± 0.014 | 1.67 ± 0.02 | -0.852 ± 0.057 | 1.82 ± 0.16 |
| AGAAUG | -0.367 ± 0.045 | 1.48 ± 0.12 | -0.126 ± 0.14 | 1.68 ± 0.043 |
| GUUGAG | -0.16 ± 0.072 | 1.55 ± 0.081 | 0.0985 ± 0.045 | 1.72 ± 0.11 |
| GACGAA | -0.377 ± 0.016 | 1.43 ± 0.12 | -0.01 ± 0.049 | 1.65 ± 0.085 |
| GAGCCU | -0.783 ± 0.038 | 1.79 ± 0.072 | -0.638 ± 0.064 | 1.89 ± 0.12 |
| AACCCU | 0.095 ± 0.16 | 1.69 ± 0.032 | 0.195 ± 0.28 | 1.84 ± 0.082 |

| Variant | FACS-Seq fitted mean (log10) (cyclic di-GMP [1]) | normalized RNA/DNA level without ligand (log10) (cyclic di-GMP [2]) | FACS-Seq fitted mean (log10) (cyclic di-GMP [3]) | normalized RNA/DNA level with ligand (log10) (cyclic di-GMP [4]) |
| --- | --- | --- | --- | --- |
| CUAUAA | -0.473 ± 0.065 | 1.41 ± 0.079 | -0.255 ± 0.021 | 1.6 ± 0.11 |
| GAAGCG | -0.36 ± 0.013 | 1.841 ± 0.018 | -0.268 ± 0.16 | 1.87 ± 0.069 |
| CCAGUU | 0.0604 ± 0.26 | 1.69 ± 0.04 | 0.36 ± 0.0063 | 1.87 ± 0.077 |
| CCAGUC | -0.422 ± 0.072 | 1.68 ± 0.023 | -0.0312 ± 0.045 | 1.83 ± 0.077 |
| CCAGUA | -0.229 ± 0.044 | 1.5 ± 0.092 | 0.134 ± 0.047 | 1.73 ± 0.12 |
| AGUUUA | -0.489 ± 0.04 | 1.53 ± 0.068 | -0.25 ± 0.013 | 1.72 ± 0.12 |
| UCAUGU | -0.749 ± 0.0092 | 1.63 ± 0.073 | -0.517 ± 0.028 | 1.82 ± 0.077 |
| AACGGA | -0.525 ± 0.046 | 1.32 ± 0.14 | -0.253 ± 0.067 | 1.53 ± 0.13 |
| UGAACG | -0.401 ± 0.086 | 1.74 ± 0.033 | -0.0168 ± 0.22 | 1.84 ± 0.11 |
| UUUAAU | 0.192 ± 0.051 | 1.698 ± 0.015 | 0.405 ± 0.0074 | 1.84 ± 0.08 |
| CCACUU | -0.246 ± 0.072 | 1.5 ± 0.069 | -0.0246 ± 0.1 | 1.69 ± 0.078 |
| CACCUU | -0.0716 ± 0.019 | 1.48 ± 0.076 | 0.228 ± 0.071 | 1.67 ± 0.066 |
| GUAAGG | -0.295 ± 0.022 | 1.59 ± 0.078 | 0.0239 ± 0.038 | 1.74 ± 0.067 |
| UAAUCU | -0.884 ± 0.042 | 1.718 ± 0.0051 | -0.707 ± 0.054 | 1.85 ± 0.08 |
| UAAUCG | -0.029 ± 0.037 | 1.7 ± 0.017 | 0.149 ± 0.061 | 1.82 ± 0.17 |
| AUGAAA | -0.678 ± 0.011 | 1.4 ± 0.14 | -0.502 ± 0.026 | 1.64 ± 0.1 |
| AAAGCU | -0.569 ± 0.092 | 1.63 ± 0.063 | -0.245 ± 0.025 | 1.78 ± 0.099 |
| CACAUA | -0.521 ± 0.032 | 1.26 ± 0.07 | -0.272 ± 0.044 | 1.52 ± 0.093 |
| AAAGAU | 0.0924 ± 0.13 | 1.52 ± 0.037 | 0.367 ± 0.016 | 1.71 ± 0.17 |
| GCGUUU | -0.452 ± 0.069 | 1.6 ± 0.026 | -0.302 ± 0.06 | 1.77 ± 0.14 |
| UAUAGU | -0.943 ± 0.17 | 1.65 ± 0.03 | -0.713 ± 0.099 | 1.79 ± 0.068 |
| CUAUCC | -0.679 ± 0.11 | 1.77 ± 0.028 | -0.371 ± 0.13 | 1.88 ± 0.13 |
| AAACAU | -0.286 ± 0.077 | 1.6 ± 0.019 | -0.0737 ± 0.18 | 1.77 ± 0.11 |
| CGCCAC | -0.0985 ± 0.057 | 1.69 ± 0.027 | 0.173 ± 0.026 | 1.84 ± 0.12 |

| Variant | FACS-Seq fitted mean (log10) (cyclic di-GMP [1]) | normalized RNA/DNA level without ligand (log10) (cyclic di-GMP [2]) | FACS-Seq fitted mean (log10) (cyclic di-GMP [3]) | normalized RNA/DNA level with ligand (log10) (cyclic di-GMP [4]) |
| --- | --- | --- | --- | --- |
| UUAUGA | -0.781 ± 0.045 | 1.63 ± 0.025 | -0.563 ± 0.026 | 1.81 ± 0.12 |
| AGCAGC | -0.317 ± 0.18 | 1.72 ± 0.048 | -0.109 ± 0.057 | 1.86 ± 0.069 |
| GUGAAA | -0.574 ± 0.012 | 1.41 ± 0.17 | -0.227 ± 0.085 | 1.62 ± 0.059 |
| CACUAA | -0.523 ± 0.058 | 1.3 ± 0.16 | -0.243 ± 0.011 | 1.48 ± 0.13 |
| AAGCCU | 0.14 ± 0.18 | 1.705 ± 0.014 | 0.3704 ± 0.0037 | 1.84 ± 0.11 |
| AUGGAU | -0.631 ± 0.017 | 1.51 ± 0.057 | -0.404 ± 0.012 | 1.67 ± 0.12 |
| GUGAUC | -0.464 ± 0.047 | 1.15 ± 0.17 | -0.114 ± 0.0038 | 1.27 ± 0.017 |
| GUAAAG | -0.104 ± 0.13 | 1.55 ± 0.078 | 0.22888 ± 7.2e-05 | 1.74 ± 0.065 |
| UCGAUA | -0.515 ± 0.044 | 1.35 ± 0.17 | -0.119 ± 0.11 | 1.51 ± 0.084 |
| ACCGAA | -0.328 ± 0.091 | 1.44 ± 0.08 | -0.063 ± 0.13 | 1.62 ± 0.12 |
| GAAUGC | 0.00373 ± 0.18 | 1.63 ± 0.013 | 0.31 ± 0.049 | 1.75 ± 0.12 |
| CCGUUG | -0.483 ± 0.093 | 1.28 ± 0.069 | -0.2456 ± 0.00076 | 1.49 ± 0.1 |
| GAAAUU | -0.0957 ± 0.14 | 1.5921 ± 0.00088 | 0.215 ± 0.096 | 1.78 ± 0.11 |
| AGUAAA | -0.319 ± 0.071 | 1.41 ± 0.038 | 0.121 ± 0.012 | 1.62 ± 0.1 |
| AGUGAC | -0.339 ± 0.017 | 1.63 ± 0.038 | -0.00165 ± 0.05 | 1.77 ± 0.13 |
| AGUGAA | -0.389 ± 0.095 | 1.36 ± 0.097 | 0.0166 ± 0.093 | 1.54 ± 0.096 |
| AAACUG | -0.426 ± 0.0086 | 1.53 ± 0.039 | -0.194 ± 0.0073 | 1.75 ± 0.092 |
| GCGGAA | -0.527 ± 0.013 | 1.33 ± 0.21 | -0.19 ± 0.061 | 1.54 ± 0.1 |
| CCCUAG | -0.7711 ± 0.0036 | 1.65 ± 0.031 | -0.624 ± 0.025 | 1.84 ± 0.13 |
| AUACGA | -0.518 ± 0.09 | 1.46 ± 0.08 | -0.228 ± 0.13 | 1.67 ± 0.14 |
| CUCCGU | 0.15 ± 0.23 | 1.8 ± 0.02 | 0.423 ± 0.0021 | 1.88 ± 0.093 |
| UACCCA | -0.0154 ± 0.2 | 1.73 ± 0.074 | 0.278 ± 0.097 | 1.86 ± 0.13 |
| AGCGAA | -0.109 ± 0.022 | 1.41 ± 0.069 | 0.163 ± 0.081 | 1.61 ± 0.15 |
